Reference: US20220145291A1

Biological target: FasR on T-cells (Jurkat cells) (UniProt P25445)
Test: cell-based or functional assay

Chain of streptavidin-FasL (P22629 37-163): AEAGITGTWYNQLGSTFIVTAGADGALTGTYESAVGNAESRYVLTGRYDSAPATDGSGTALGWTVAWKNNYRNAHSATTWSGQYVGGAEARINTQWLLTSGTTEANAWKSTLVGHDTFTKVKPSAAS
Chain of FasR on T-cells (Jurkat cells) (P25445 26-335 limits assumed): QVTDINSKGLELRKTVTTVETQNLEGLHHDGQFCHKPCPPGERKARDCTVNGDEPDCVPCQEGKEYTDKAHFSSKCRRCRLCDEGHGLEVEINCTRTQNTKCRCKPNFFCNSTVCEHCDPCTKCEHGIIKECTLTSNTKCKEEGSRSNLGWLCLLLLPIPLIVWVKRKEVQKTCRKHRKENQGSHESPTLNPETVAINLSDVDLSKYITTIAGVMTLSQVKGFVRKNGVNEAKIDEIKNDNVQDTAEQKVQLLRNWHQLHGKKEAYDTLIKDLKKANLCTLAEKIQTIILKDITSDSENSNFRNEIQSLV

streptavidin-FasL (from UniProt P22629 37-163) (ligand)
apoptosis in Jurkat cells, flow cytometry (Annexin V); SA-FasL tethered on exosomes, 1 µg exosome protein: 17.5% | apoptosis in Jurkat cells, flow cytometry (Annexin V); SA-FasL tethered on exosomes, 20 µg exosome protein: 99.3%
